{"source": "paper PMC4915018", "about": "“Brain phosphorylation of MeCP2 at serine 164 is developmentally regulated and globally alters its chromatin association”", "target": "MeCP2(74-172) WT (human, UniProt P51608 74-172)", "sequence (P51608 74-172)": "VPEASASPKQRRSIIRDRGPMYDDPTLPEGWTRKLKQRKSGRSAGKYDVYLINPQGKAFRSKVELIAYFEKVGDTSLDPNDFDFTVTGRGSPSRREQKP", "assay": "EMSA; subtly but consistently higher affinity for mCG; 10 mM Tris-HCl (pH not given), 50 mM KCl, 0.5 mM MgCl2, 0.1 mM EDTA, 5% glycerol, 0.1 mg/ml BSA, RT 30 min; 0-500 ng protein, 200 ng probe; 6% acrylamide, 1X TAE, ethidium bromide", "conditions": "protein: recombinant; blunt", "data": [{"binder": "CpG methylated probe (dsDNA, symmetric methyl-C at the only CpG (C16 of S1, C23 of S2; position inferred, bold marks lost)) DNA 1: CTAAAGGAAAAGTGACGCACTGTTTTACACCTTGGTTTT DNA 2: AAAACCAAGGTGTAAAACAGTGCGTCACTTTTCCTTTAG", "values": [{"measurement": "binding result", "result": "binds"}]}]}
